Molecular target: CD2 (human) (UniProt P06729)
Test: dTomato EVs from cells stably expressing the codon-optimized scFv on Jurkat T cells, flow cytometry

Chain of UniProt P06729 (P06729 25-351): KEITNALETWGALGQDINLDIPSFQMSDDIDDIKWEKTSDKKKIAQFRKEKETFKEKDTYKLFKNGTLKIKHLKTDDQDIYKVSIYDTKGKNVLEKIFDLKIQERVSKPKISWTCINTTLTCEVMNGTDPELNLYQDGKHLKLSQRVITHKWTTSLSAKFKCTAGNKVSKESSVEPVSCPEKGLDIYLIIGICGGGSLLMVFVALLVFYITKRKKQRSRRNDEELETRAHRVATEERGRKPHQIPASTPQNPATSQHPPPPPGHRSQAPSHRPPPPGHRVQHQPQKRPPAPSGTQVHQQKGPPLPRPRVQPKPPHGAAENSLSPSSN

B1: anti-CD2 scFv displayed on EVs via the PDGFR transmembrane domain, helical (α-helix) linker (scFv)
scFv: DYKDHDGDYKDHDIDYKDDDDKNIMMTQSPSSLAVSAGEKVTMTCKSSQSVLYSSNQKNYLAWYQQKPGQSPKLLIYWASTRESGVPDRFTGSGSGTDFTLTISSVQPEDLAVYYCHQYLSSHTFGGGTKLEIKRGGGGSGGGGSGGGGSQLQQPGAELVRPGSSVKLSCKASGYTFTRYWIHWVKQRPIQGLEWIGNIDPSDSETHYNQKFKDKATLTVDKSSGTAYMQLSSLTSEDSAVYYCATEDLYYAMEYWGQGTSVTVSSDQSNSEEAKKEEAKKEEAKKSNSAVGQDTQEVIVVPHSLPFKVVVISAILALVVLTIISLIILIMLWQKKPR
For B1, the fold increase of EV binding over non-targeted EVs was > 100 fold.
